Literature values as cited in paper PMC2288786 (BMC Structural Biology, 2008).

Target: CaM
Conditions: previously observed for full-length MBP; ref [18],[21]
Description: Background The myelin sheath is a multilamellar membrane structure wrapped around the axon, enabling the saltatory conduction of nerve impulses in vertebrates. […] In this study, we focus on a 19-mer synthetic peptide from the predicted calmodulin-binding segment near the C-terminus of human myelin basic protein. […] The binding of the ...

Kd in words: low μM range
B1: full-length myelin basic protein: full-length myelin basic protein of earlier studies (protein, UniProt P02686 1-304, looked up)
chain: MGNHAGKRELNAEKASTNSETNRGESEKKRNLGELSRTTSEDNEVFGEADANQNNGTSSQDTAVTDSKRTADPKNAWQDAHPADPGSRPHLIRLFSRDAPGREDNTFKDRPSESDELQTIQEDSAATSESLDVMASQKRPSQRHGSKYLATASTMDHARHGFLPRHRDTGILDSIGRFFGGDRGAPKRGSGKDSHHPARTAHYGSLPQKSHGRTQDENPVVHFFKNIVTPRTPPPSQGKGRGLSLSRFSWGAEGQRPGFGYGGRASDYKSAHKGFKGVDAQGTLSKIFKLGGRDSRSGSPMARR
modifications: full-length
notes: full-length myelin basic protein of earlier studies
